The term Kd denotes the concentration at which binding is half-saturated. As a reminder, the IC50 is the concentration at which inhibition is half-maximal.

Read-outs that look alike come from different tables or passages of the source.

Assay [1] has as its target T1, human CXCR4 (human, UniProt P61073 1-352). Kind of assay: cell-based or functional assay.
Assay [2] has as its target T1, human CXCR4. Kind of assay: cell-based or functional assay. This is another data set of the same source.
In assay [3] the target is T1, human CXCR4. Nature of the assay: cell-based or functional assay. The source holds these as a separate data set.
The next assay has as its target T2, CCR4 (human, UniProt P51679 1-360).
T2 construct: whole, on cells
T2 sequence (looked up): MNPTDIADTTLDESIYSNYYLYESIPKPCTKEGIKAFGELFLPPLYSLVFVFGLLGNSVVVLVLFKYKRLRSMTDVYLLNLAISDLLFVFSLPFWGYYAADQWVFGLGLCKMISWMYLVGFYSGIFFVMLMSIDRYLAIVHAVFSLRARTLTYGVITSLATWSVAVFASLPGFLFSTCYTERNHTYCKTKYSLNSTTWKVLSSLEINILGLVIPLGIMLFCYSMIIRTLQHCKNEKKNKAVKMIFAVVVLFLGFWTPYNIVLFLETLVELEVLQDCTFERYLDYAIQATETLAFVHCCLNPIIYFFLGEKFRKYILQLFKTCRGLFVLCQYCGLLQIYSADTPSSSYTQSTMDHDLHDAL
Nature of the assay: FACS on CCR4 transfected CHO cells, parental cells as control. How it is done:
(§1) CXCR4 is a GPCR, with few close homologues in the family of human GPCRs. Among these are CXCR3 and CCR4. […] The samples were analyzed on a FACS Caliber cytometer.

In assay [4] the target is T3, cynomolgus monkey CXCR4 (cynomolgus monkey, UniProt Q28474 1-352).
T3 construct: whole, on cells; On transiently transfected HEK293T cells or endogenous on the cynomolgus T-cell line HSC-F; also called Cynomolgus CXCR4
Kind of assay: Kinexa-based on-cell affinity (FACS) on cynomolgus T-cell line HSC-F.

A further assay addresses T4, human CXCR3 (human, UniProt P49682 1-368).
T4 construct: whole, on cells
T4 sequence (looked up): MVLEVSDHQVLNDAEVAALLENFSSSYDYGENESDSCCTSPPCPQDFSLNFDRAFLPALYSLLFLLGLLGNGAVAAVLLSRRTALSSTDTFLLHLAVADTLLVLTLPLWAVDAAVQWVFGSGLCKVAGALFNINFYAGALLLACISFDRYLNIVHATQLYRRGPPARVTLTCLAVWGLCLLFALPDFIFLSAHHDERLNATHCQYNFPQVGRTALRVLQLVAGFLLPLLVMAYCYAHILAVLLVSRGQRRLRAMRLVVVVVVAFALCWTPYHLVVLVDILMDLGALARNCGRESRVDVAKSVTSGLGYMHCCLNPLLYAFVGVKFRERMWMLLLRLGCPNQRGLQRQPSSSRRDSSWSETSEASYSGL
Kind of assay: FACS on human CXCR3 transfected HEK293 cells, parental cells as control. How it is done:
as §1

Assay [5] concerns the target T1, human CXCR4. Nature of the assay: FMAT, hybridoma supernatant on HEK293T cells transiently overexpressing full-length human CXCR4. As for the experimental part: (§2) Supernatants collected from harvested cells were tested to assess the ability of the secreted antibodies to bind to HEK293T cells transiently overexpressing either full-length human, murine or cynomolgus monkey CXCR4. […] Cells diluted in PBS containing 2% FBS were seeded at a density of 3000 expressing and 15000 mock transfected cells per well in 384 well plates (Corning Costar, catalog #3712). Immediately after plating, 15 or 20 μl/well of hybridoma supernatants and 10 μl/well of secondary antibody (Goat anti-human IgG Fc Cy5, final concentration 750 ng/ml) were added and plates incubated for 3 hours at room temperature prior to reading the fluorescence on the FMAT 8200 instrument (Applied Biosystems). The product of number of positive events and fluorescence intensity was used as a measure of binding strength.

Assay [6] has as its target T1, human CXCR4. Nature of the assay: FACS binding under antigen limiting conditions on Jurkat cells, Kinexa software fit; experiment 1. As for the experimental part:
(§3) FACS binding under antigen limiting conditions was utilized to estimate the affinities of antibodies to the CXCR4 receptor. Jurkat cells were washed in RPMI1640 medium and plated at 50,000 cells per well in duplicate for incubation with 4-fold dilution series of antibody in duplicate, ranging between 150,000 and 0.143 pM. Incubation was carried out at 4° C. overnight, followed by wash step (3 times in PBS) and staining with Goat anti-human Fc−Cy5 secondary antibody+5 μg/mL 7-Amino-Actinomycin (7AAD) for 40 minutes at 4° C. Samples were analyzed on a FACSCaliber following another round of 3 washes in PBS. […] The negative geo mean was entered into Kinexa analysis software as an estimate of antibody “depletion” under limited antigen conditions, and the equilibrium dissociation constant (KD) was estimated from the curve fit.

For assay [7], the target named is T1, human CXCR4. Kind of assay: FACS binding under antigen limiting conditions on Jurkat cells, Kinexa software fit; experiment 2. How it is done: as §3
(In flow cytometry, cells or beads pass a laser one at a time.)

In assay [8] the target is T3, cynomolgus monkey CXCR4. Nature of the assay: FMAT, hybridoma supernatant on HEK293T cells transiently overexpressing full-length cynomolgus CXCR4. How it is done:
as §2

Assay [9] has as its target T1, human CXCR4. Nature of the assay: FACS, hybridoma supernatant pre-incubated with human CXCR4 transfected HEK293T cells, competitor Alexa-647 SDF-1.
The target in assay [10] is T1, human CXCR4. Nature of the assay: FACS competition on formalin-fixed Namalwa cells: 10 nM biotinylated SDF-1 bound first, then displaced by 6C7; streptavidin-PE readout.
For assay [11], the target named is T5, mouse CXCR4 (mouse, UniProt P70658 1-359).
T5 construct: Full-length murine CXCR4 on transiently transfected HEK293T cells; also native on mouse lymphocytes and the EL4 line; also called murine CXCR4
Nature of the assay: FMAT, hybridoma supernatant on HEK293T cells transiently overexpressing mouse CXCR4. How it is done: as §2

The target in assay [12] is T5, mouse CXCR4. Nature of the assay: FMAT, hybridoma supernatant on HEK293T cells transiently overexpressing full-length mouse CXCR4. As for the experimental part:
as §2

T3 sequence (Q28474 whole entry): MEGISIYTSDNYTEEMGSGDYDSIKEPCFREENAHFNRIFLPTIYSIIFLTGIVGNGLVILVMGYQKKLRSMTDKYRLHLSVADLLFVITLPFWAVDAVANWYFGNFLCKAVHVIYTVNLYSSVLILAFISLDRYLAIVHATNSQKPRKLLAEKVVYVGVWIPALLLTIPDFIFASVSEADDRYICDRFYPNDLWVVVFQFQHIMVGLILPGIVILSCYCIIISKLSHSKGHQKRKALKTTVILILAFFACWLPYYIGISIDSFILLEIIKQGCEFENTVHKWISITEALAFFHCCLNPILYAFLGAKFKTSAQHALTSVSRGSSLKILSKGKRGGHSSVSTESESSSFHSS
T1 sequence (P61073 whole entry): as the sequence (Q28474 whole entry) above, with I24M, H35N, R38K, K146R, S176N counted along it
T5 sequence (P70658 whole entry): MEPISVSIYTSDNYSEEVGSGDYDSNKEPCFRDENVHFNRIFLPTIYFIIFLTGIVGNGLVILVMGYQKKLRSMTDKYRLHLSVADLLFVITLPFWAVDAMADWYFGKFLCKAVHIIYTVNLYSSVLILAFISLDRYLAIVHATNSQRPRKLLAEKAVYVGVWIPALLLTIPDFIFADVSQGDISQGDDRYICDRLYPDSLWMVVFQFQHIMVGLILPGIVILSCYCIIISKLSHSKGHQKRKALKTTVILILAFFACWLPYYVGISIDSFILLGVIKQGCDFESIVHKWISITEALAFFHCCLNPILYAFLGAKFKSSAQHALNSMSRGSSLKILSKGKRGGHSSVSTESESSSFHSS

B1: 6C7 (antibody, V domains shown)
VH: QVQLVESGGGVVQPGRSLRLSCAASGFTFSNYVMHWVRQAPGKGLEWVAVIWYDGSNKYYADSVKGRFTISRDNSKNTLSLQMNSLRAEDTAVYYCERGEGYYGSGSRYRGYYYGMDVWGQGTTVTVSS
VL: DIQMTQSPSSLSASVGDRVTITCRASQGIRTDLGWYQQKPGKAPKRLIYAASSLQSGVPSRFSGSGSGTEFTLTISSLQPEDFATYYCLQHNSYPRTFGQGTKVEIK
notes: Fully human monoclonal antibody from XenoMouse hybridoma; also called antibody 6C7; mAb 6C7
As to B1, in the assay with human CXCR4 [1], the “% Inhibition 1 hr (Jurkat chemotaxis)” value was 99.6% and the “% Inhibition 24 hr (Jurkat chemotaxis)” value was 95%. In the assay with human CXCR4 [2], the “Jurkat chemotaxis inhibition IC50 pM” value was 74.7 pM and the “Jurkat chemotaxis inhibition IC50” value is 0.0112 µg/mL. Also, the “Jurkat chemotaxis inhibition IC50” value with human CXCR4 [3] is 0.068 nM. In the assay with CCR4, the binding result is “no binding (tested: 10 and 100 ug/ml)”. For the same molecule, in the assay with cynomolgus monkey CXCR4 [4], the Kd is 0.221 nM. In the assay with human CXCR3, the binding result was “no binding (tested: 10 and 100 ug/ml)”. In the assay with human CXCR4 [5], this molecule had a Count of 199, an FL1 of 7990 and an FL1 x count of 1.59e+06. In the assay with human CXCR4 [6], this molecule gave a Kd of 0.242 nM. Besides, the Kd with human CXCR4 [7] was 0.768 nM. Besides, in the assay with cynomolgus monkey CXCR4 [8], the Count came out at 125, the FL1 was found to be 3470 and the FL1 x count was found to be 434000. The “% Inhibition of SDF-1 binding” value with human CXCR4 [9] worked out at 88%. Moreover, in the assay with human CXCR4 [10], the IC50 came out at 0.123 nM and the “IC50 (read off the curve)” value was roughly 0.1 nM.

B2: 5C9 (antibody, V domains shown)
VH: QVQLVESGGGVVQPGRSLRLSCAASGFTFSSYGLHWVRQSPGKGLEWVAVISYDGSKKYYADSVKGRFSISRDNSKNTLYLQMNSLRAEDTAVYYCARDRPSRYSSCMDVWGQGTTVTVSS
VL: QSALTQPASVSGSPGQSITISCTGTSSDVGSNNFVSWYQQHPGKAPKLMIYEVSKRPSGVSNRFSGSKSGNTASLTISGLQAEDEADYYCCSYAGSNTLVFGGGTKLTVL
notes: Fully human monoclonal antibody from XenoMouse hybridoma (lambda light chain)
On to B2, for which, in the assay with human CXCR4 [1], the “% Inhibition 1 hr (Jurkat chemotaxis)” value came to 74% and the “% Inhibition 24 hr (Jurkat chemotaxis)” value was 44%. Besides, in the assay with human CXCR4 [2], the “Jurkat chemotaxis inhibition IC50 pM” value came to 28200 pM and the “Jurkat chemotaxis inhibition IC50” value was found to be 4.22 µg/mL. In addition, the binding result with mouse CXCR4 [11] is “no binding”. In the assay with human CXCR4 [5], this molecule came in with a Count of 233, an FL1 of 8800 and an FL1 x count of 2.05e+06. In the assay with mouse CXCR4 [12], this molecule showed a Count of 72, an FL1 of 4780 and an FL1 x count of 344000. In the assay with cynomolgus monkey CXCR4 [8], this molecule returned a Count of 106, an FL1 of 7320 and an FL1 x count of 776000. Also, the “% Inhibition of SDF-1 binding” value with human CXCR4 [9] was -1%.

For the origin of these results see US20140314784A1 (MEDLMMUNE, published 2014).
